± gives the uncertainty stated by the source.
Experiment: protein stability index of a GFP-peptide fusion (yeast GPS) (PSI 1-4); higher = more stable; sorted into four equal gates, so the index is relative within each strain
In short: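 Plasmids isolated from each sorting gate were PCR-amplified and Illumina-sequenced, and barcodes assigned the reads to strains. The gates, four of equal size, were set by GFP/Cherry fluorescence ratio on mid-log cultures in leucine-free medium. These cultures were yeast carrying a pooled library of tiled 17-residue yeast protein peptides fused downstream of GFP on a plasmid that also expresses Cherry. The protein stability index is the sum of every gate's read frequency times its gate number.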

| Sequence | protein stability index (doa10∆) | protein stability index (pdr5∆) | protein stability index (san1∆) | protein stability index (ubr1∆) |
| --- | --- | --- | --- | --- |
| AVDLEHHDYRSYYGIVC [RRP6] | 2.5 ± 0.067 | 2.77 ± 0.049 | 2.37 ± 0.083 | 2.97 ± 0.038 |
| QAKLKKNVETLEEKILA [SMC4] | 3.09 ± 0.08 | 2.98 ± 0.077 | 3.13 ± 0.077 | 3.13 ± 0.066 |
| LMLEDAVTEREVLVTPG [MCD1] | 1.94 ± 0.2 |  | 2.16 ± 0.13 | 2.18 ± 0.27 |
| HLLVQLQKNDVYAFKAK [REC8] | 3.15 ± 0.075 | 2.99 ± 0.064 | 2.73 ± 0.059 | 3.15 ± 0.074 |
| DDDDEDDDEIVMPVPNV [SKP1] | 3.3 ± 0.064 | 3.06 ± 0.099 | 3.08 ± 0.11 | 3.21 ± 0.11 |
| GTVGNSHKTTKEDTVSW [RPL11A] | 3.07 ± 0.095 | 3.1 ± 0.095 | 3.22 ± 0.069 | 3.12 ± 0.18 |
| DDEDEDDSDNVMSSDDE [PRE10] | 3.17 ± 0.094 | 3.46 ± 0.12 | 3.44 ± 0.15 | 3.12 ± 0.17 |
| FSEVYEYNRLKVQDAIE [LIN1] | 2.71 ± 0.059 | 2.17 ± 0.055 | 3.04 ± 0.076 | 2.89 ± 0.086 |
| ERNEQEREIMNDHSKSA [SWI3] | 3.27 ± 0.069 | 3.33 ± 0.066 | 3.1 ± 0.092 | 3.48 ± 0.084 |
| GNDAKPAKVEDVQKSSD [YLR335W/NUP2] | 3.3 ± 0.064 | 3.2 ± 0.058 | 3.17 ± 0.052 | 3.13 ± 0.051 |
| ENIPVALCKNRKCQFRT [POP1] | 2.46 ± 0.048 | 2.68 ± 0.059 | 2.32 ± 0.079 | 1.96 ± 0.035 |
| LSALNSEISSLKGKINN [SMC1] | 3.03 ± 0.09 | 3 ± 0.092 | 3.08 ± 0.064 | 3.06 ± 0.075 |
| SEKKDTDGADENVQIGE [SRB4] | 2.65 ± 0.12 | 3.31 ± 0.17 |  | 3.06 ± 0.18 |
| DLGITEKNDQNNDDDDN [MCD1] |  | 2.97 ± 0.14 |  | 3.41 ± 0.24 |
| DSVEFIFQAKRNSNPEN [RPN10] | 2.75 ± 0.087 | 2.73 ± 0.089 | 3.2 ± 0.12 | 2.69 ± 0.083 |
| LVVYAEDNGIVKALRNV [RPL4A] | 2.1 ± 0.14 | 3.16 ± 0.12 | 2.59 ± 0.086 | 2.57 ± 0.12 |
| GNYSHLMEKNRIRKLTG [REC8] | 1.58 ± 0.067 | 2.04 ± 0.061 | 2.56 ± 0.1 | 1.9 ± 0.062 |
| TEGRSRDGGLRLGEMER [RET1] | 1.35 ± 0.081 | 1.82 ± 0.12 | 1.49 ± 0.28 | 1.58 ± 0.071 |
| ETEKFALERNWPIVNSK [RPN12] | 3.19 ± 0.095 | 3.25 ± 0.12 | 3.13 ± 0.069 | 3.11 ± 0.086 |
| YVRKHDPLNSNIFSEAV [PRP28] | 2.9 ± 0.11 | 2.76 ± 0.089 | 2.9 ± 0.055 | 3.1 ± 0.12 |
| MNMFGGGMGGGMGGGMP [SRP54] | 1.38 ± 0.055 | 2.43 ± 0.21 | 1.69 ± 0.17 | 1.53 ± 0.18 |
| VEKLGKKMEARGQSIWV [RPN9] |  |  |  | 1.51 ± 0.14 |
| VDNVWADVYAKALEGKD [RPP1B] | 3.14 ± 0.1 | 3.1 ± 0.16 | 3.35 ± 0.12 | 3.06 ± 0.11 |
| MIKESSTANPNIKLLNN [POP1] | 3.07 ± 0.2 | 2.9 ± 0.11 | 2.83 ± 0.087 | 2.74 ± 0.066 |
| EIVRDILHTKESSNEAK [SIR4] | 2.75 ± 0.067 | 2.96 ± 0.074 | 2.82 ± 0.06 | 2.75 ± 0.059 |
| RMAKLCARFLGNRGFSI [RPO31] | 2.35 ± 0.2 |  |  | 2.93 ± 0.2 |
| QEMIEISNVIKPNQTIM [SRP54] | 2.62 ± 0.23 | 2.21 ± 0.079 |  | 1.96 ± 0.1 |
| EKIFHYGHVFLGITGLA [PUP3] | 1.17 ± 0.086 | 1.34 ± 0.094 | 1.15 ± 0.18 | 1.05 ± 0.074 |

Reference: the supplement of paper PMC9732359
